Assay results from article PMC10770391, “Site-selective chlorination of pyrrolic heterocycles by flavin dependent enzyme PrnC” (Communications Chemistry, 2024).

Substrate: Nc1c(Cl)cccc1-c1cc[nH]c1
Experiment: purified protein
Type: biochemical, Pseudomonas fluorescens
Conditions: E. coli Fre 2.5 μM, FAD 1 μM, MgCl2 10 mM, NADH 2.5 mM, 20 mM Tris pH 7.4, PrnC 2.5 μM, chlorination

B1: PrnC (NT11-PrnC-6His; native PrnC) (Pseudomonas fluorescens) (protein)
chain: MTQKSPANEHDSNHFDVIILGSGMSGTQMGAILAKQQFRVLIIEESSHPRFTIGESSIPETSLMNRIIADRYGIPELDHITSFYSTQRYVASSTGIKRNFGFVFHKPGQEHDPKEFTQCVIPELPWGPESHYYRQDVDAYLLQAAIKYGCKVHQKTTVTEYHADKDGVAVTTAQGERFTGRYMIDCGGPRAPLATKFKLREEPCRFKTHSRSLYTHMLGVKPFDDIFKVKGQRWRWHEGTLHHMFEGGWLWVIPFNNHPRSTNNLVSVGLQLDPRVYPKTDISAQQEFDEFLARFPSIGAQFRDAVPVRDWVKTDRLQFSSNACVGDRYCLMLHANGFIDPLFSRGLENTAVTIHALAARLIKALRDDDFSPERFEYIERLQQKLLDHNDDFVSCCYTAFSDFRLWDAFHRLWAVGTILGQFRLVQAHARFRASRNEGDLDHLDNDPPYLGYLCADMEEYYQLFNDAKAEVEAVSAGRKPADEAAARIHALIDERDFAKPMFGFGYCITGDKPQLNNSKYSLLPAMRLMYWTQTRAPAEVKKYFDYNPMFALLKAYITTRIGLALKK
notes: N-terminal 11-residue NT11 solubility tag and C-terminal 6His tag, pET-28a(+), expressed in E. coli T7 Express, Ni-NTA purified; dimer by cryo-EM
  Km: 15.8 ± 0.7 µM
  kcat: 0.00767 s⁻¹
